Experimental findings from patent EP3964526A1 are described below.

Assay [1] has as its target recombinant human TNF (hTNF) (human) (UniProt P01375). In words: cell-based or functional assay. The conditions noted are these: scale: ratio EC50 ESBA105 / EC50 test, in mass units [ng/ml].
Assay [2] deals with recombinant human VEGF165 (PeproTech EC Ltd.) (human) (UniProt P15692). In words: SPR BIAcore T100, hVEGF165 amine-coupled on CM4 chip, scFv as analyte.
The target of assay [3] is VEGF (as used in the VEGFR competition ELISA). In words: competition ELISA against hVEGR1, EC50 ratio to reference Luc.
VEGF (as used in the VEGFR competition ELISA), sequence (P15692 whole entry): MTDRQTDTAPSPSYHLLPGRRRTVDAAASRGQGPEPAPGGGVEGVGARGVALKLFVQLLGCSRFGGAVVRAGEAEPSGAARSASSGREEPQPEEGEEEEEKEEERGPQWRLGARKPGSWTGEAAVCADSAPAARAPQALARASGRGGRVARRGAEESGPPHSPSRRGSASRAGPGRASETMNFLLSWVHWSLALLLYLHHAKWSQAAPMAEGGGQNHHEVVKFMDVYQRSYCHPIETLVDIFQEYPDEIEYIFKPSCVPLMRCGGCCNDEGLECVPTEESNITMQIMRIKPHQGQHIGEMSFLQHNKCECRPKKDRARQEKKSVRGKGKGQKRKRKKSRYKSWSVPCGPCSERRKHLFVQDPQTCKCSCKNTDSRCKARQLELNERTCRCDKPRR

recombinant human VEGF165 (PeproTech EC Ltd.) (human), sequence (P15692 other isoform, or with tags, fused parts or gaps limits assumed): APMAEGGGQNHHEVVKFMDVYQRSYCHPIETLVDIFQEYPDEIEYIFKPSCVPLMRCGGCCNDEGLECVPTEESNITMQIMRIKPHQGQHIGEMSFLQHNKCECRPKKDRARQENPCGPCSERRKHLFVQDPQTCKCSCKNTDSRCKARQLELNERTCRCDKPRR
recombinant human TNF (hTNF) (human), sequence (P01375 77-233 limits assumed): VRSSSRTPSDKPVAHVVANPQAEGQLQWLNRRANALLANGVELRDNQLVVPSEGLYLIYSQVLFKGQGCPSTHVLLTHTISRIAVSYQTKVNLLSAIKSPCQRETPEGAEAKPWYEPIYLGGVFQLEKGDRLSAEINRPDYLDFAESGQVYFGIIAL

B1: EP6_max (scFv, from another filing)
scFv: EIVMTQSPSTLSASVGDRVIITCQASESIYSGLAWYQQKPGKAPKLLIYQASTLASGVPSRFSGSGSGTDFTLAISSLQPDDFATYYCQQGFGTSNVENPFGQGTKLTVLGGGGGSGGGGSGGGGSGGGGSEVQLVESGGGLVQPGGSLRLSCTVSGFSLSRYGVSWVRQAPGKGLEWVGTIGEAGRAYYANWARSRSTISRDTSKNTVYLQMNSLRAEDTAVYYCARGEVFNNGWGAFNIWGQGTLVTVSS
For the molecule B1, the L929* [EC50-E105 / EC50-X] in assay [1] amounted to 1.1.

B2: EP15_max (scFv, from another filing)
scFv: EIVMTQSPSTLSASVGDRVIITCQASENIYTSLAWYQQKPGKAPKLLIYSASTLASGVPSRFSGSGSGTEFTLTISSLQPDDFATYYCQQGFATSNVENPFGQGTKLTVLGGGGGSGGGGSGGGGSGGGGSEVQLVESGGGSVQPGGSLRLSCTVSGFSLSRYGVSWVRQAPGKGLEWVGAIGETGRAYYANWAKSRSTISRDTSKNTVYLQMNSLRAEDTATYYCARGEEFNNGWGAFNIWGQGTTVTVSS
For the molecule B2, the L929* [EC50-E105 / EC50-X] in assay [1] amounted to 0.39.

B3: EP35_max (scFv, from another filing)
scFv: EIVMTQSPSTLSASVGDRVIITCQASQSISNLLAWYQQKPGKAPKLLIVAASKLASGVPSRFSGSGSGTEFTLTISSLQPDDFATYYCQQGWSHTNVDNTFGQGTKLTVLGGGGGSGGGGSGGGGSGGGGSEVQLVESGGGSVQPGGSLRLSCTASGFSFSVGYWICWVRQAPGKGLEWVACIDAGTSGGTYYATWAKGRFTISKDTSKNTVYLQMNSLRAEDTATYYCARGVSSNGYYFKLWGQGTTVTVSS
Consider B3, for which, in assay [1], the L929* [EC50-E105 / EC50-X] amounted to 5.2.

B4: EP34_max (scFv, from another filing)
scFv: EIVMTQSPSTLSASLGDRVIITCQSSQSVYGNIWMAWYQQKSGKAPKLLIYQASKLASGVPSRFSGSGSGAEFSLTISSLQPDDFATYYCQGNFNTGDRYAFGQGTKLTVLGGGGGSGGGGSGGGGSGGGGSEVQLVESGGGLVQPGGSLRLSCTASGFTISRSYWICWVRQAPGKGLEWVACIYGDNDITPLYANWAKGRFPVSTDTSKNTVYLQMNSLRAEDTAVYYCARLGYADYAYDLWGQGTLVTVSS
For the molecule B4, the L929* [EC50-E105 / EC50-X] in assay [1] worked out at 10.5.

B5: EP43_max (scFv, from another filing)
scFv: EIVMTQSPSTLSASVGDRVIIKCQASQSISDWLAWYQQKPGKAPKLLIYGASRLASGFPSRFSGSGSGAEFTLTISGLEPADFATYYCQQGWSDSYVDNLFGQGTKLTVLGGGGGSGGGGSGGGGSGGGGSEVQLVESGGGLVQPGGSLRLSCTVSGFSLSSGAMSWVRQAPGKGLEWVGVIISSGATYYASWAKGRFTISKDTSKNTVYLQMNSLRAEDTAVYYCARGGPDDSNSMGTFDPWGQGTLVTVSS
For B5, the L929* [EC50-E105 / EC50-X] in assay [1] came out at 6.4.

B6: 509-maxll (scFv, from another filing)
scFv: EIVMTQSPSTLSASVGDRVIITCQASQNIRIWLSWYQQKPGKAPKLLIYKASTLESGVPSRFSGSGSGTEFTLTISSLQPDDFATYYCQNNAHYSTNGGTFGQGTKLTVLGGGGGSGGGGSGGGGSGGGGSEVQLVESGGGLVQPGGSLRLSCTASGFSLSSYYMSWVRQAPGKGLEWVGILDYVGDTDYASWAKGRFTISKDASKNTVYLQMNSLRAEDTAVYYCARTDDSRGWGLNIWGQGTLVTVSS
For the molecule B6, in assay [2], the dissociation constant Kd turned out to be 3.37 nM, the koff is 0.00282 s⁻¹ and the on-rate (kon) came to 838000 M⁻¹ s⁻¹. Also, in assay [3], the Rel. activity hVEGR1 comp. ELISA (EC50Luc[nM]/EC50test[nM]) worked out at 0.09.
